Ends that are not written are not given here. * marks the point of attachment. Biotin = O=C1N[C@H]2[C@H](CS[C@H]2CCCCC(=O)*)N1

Experiment [1] has as its target T1, GST-SYN1a (alpha1-syntrophin) PDZ domain fusion protein (Homo sapiens (Human), UniProt Q13424 84-179).
T1 construct: also called SYN 1 α; not shown: glutathione S-transferase (GST) encoded by pGEX-3X
T1 sequence: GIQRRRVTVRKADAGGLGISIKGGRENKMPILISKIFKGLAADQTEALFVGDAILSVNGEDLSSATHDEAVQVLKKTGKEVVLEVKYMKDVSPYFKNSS
The experiment can be described thus: G assay.

Experiment [2] concerns the target T2, GST-NeDLG PDZ domains 1-2 fusion protein (Mus musculus (Mouse), UniProt P70175 147-332).
T2 construct: also called NeDLG1; not shown: glutathione S-transferase (GST) encoded by pGEX-3X
T2 chain: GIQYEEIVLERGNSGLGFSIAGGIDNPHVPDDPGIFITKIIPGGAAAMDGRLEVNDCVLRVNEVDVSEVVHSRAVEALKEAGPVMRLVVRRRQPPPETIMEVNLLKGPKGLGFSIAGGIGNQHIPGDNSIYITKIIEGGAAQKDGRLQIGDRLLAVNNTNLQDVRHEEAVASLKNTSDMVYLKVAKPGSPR
The experiment can be described thus: G assay.

Experiment [3] addresses T3, GST-MINT3 PDZ domain fusion protein (human).
T3 construct: also called human MINT3; not shown: glutathione S-transferase (GST) encoded by pGEX-3X
T3 chain: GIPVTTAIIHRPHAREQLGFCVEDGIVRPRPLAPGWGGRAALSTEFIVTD
The experiment can be described thus: A/G assays.

Experiment [4] concerns the target T4, GST-MPP2 PDZ domain fusion protein.
T4 construct: also called maguk p55 subfamily member 2 (DLG2); MMP2; not shown: glutathione S-transferase (GST) encoded by pGEX-3X
T4 chain: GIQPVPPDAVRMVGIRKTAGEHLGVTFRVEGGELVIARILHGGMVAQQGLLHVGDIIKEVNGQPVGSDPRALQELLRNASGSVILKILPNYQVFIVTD
The experiment can be described thus: A/G assays.

In experiment [5] the target is T5, GST-TAX2 PDZ domain fusion protein (human, UniProt O14908 129-216).
T5 construct: not shown: glutathione S-transferase (GST) encoded by pGEX-3X
T5 chain: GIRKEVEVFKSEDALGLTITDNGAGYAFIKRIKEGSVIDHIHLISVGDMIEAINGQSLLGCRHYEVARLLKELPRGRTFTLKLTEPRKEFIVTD
The experiment can be described thus: A/G assays.

In experiment [6] the target is T6, GST-LIMK2 PDZ domain fusion protein (human, UniProt P53671 147-237).
T6 construct: also called human LIM domain kinase 2; not shown: glutathione S-transferase (GST) encoded by pGEX-3X
T6 sequence: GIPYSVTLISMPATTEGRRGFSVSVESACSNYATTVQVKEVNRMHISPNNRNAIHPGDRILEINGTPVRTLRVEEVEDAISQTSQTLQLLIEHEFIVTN
The experiment can be described thus: A/G assays.

Experiment [7] has as its target T7, GST-DVL1 PDZ domain fusion protein (human).
T7 construct: also called human dishevelled segment polarity protein homolog; not shown: glutathione S-transferase (GST) encoded by pGEX-3X
T7 chain: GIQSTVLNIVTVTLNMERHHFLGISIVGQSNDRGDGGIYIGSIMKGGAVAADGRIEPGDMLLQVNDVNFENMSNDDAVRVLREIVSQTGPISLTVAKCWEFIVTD
The experiment can be described thus: A/G assays.

Experiment [8] deals with T8, GST-MPP1 PDZ domain fusion protein (Homo sapiens (Human), UniProt Q00013 67-152).
T8 construct: also called 55 Kd erythrocyte membrane protein; not shown: glutathione S-transferase (GST) encoded by pGEX-3X
T8 sequence: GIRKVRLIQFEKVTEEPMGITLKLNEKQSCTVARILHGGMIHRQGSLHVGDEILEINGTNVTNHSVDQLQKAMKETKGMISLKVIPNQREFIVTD
The experiment can be described thus: A/G assays.

Experiment [9] concerns the target T4, GST-MPP2 PDZ domain fusion protein. The experiment can be described thus: A assay.
The target of experiment [10] is T1, GST-SYN1a (alpha1-syntrophin) PDZ …. The experiment can be described thus: A/G assays.
In experiment [11] the target is T9, GST-41.8 kD (hypothetical 41.8 kD protein) PDZ domain fusion protein (Mus musculus (Mouse), UniProt Q9EQZ7 682-763).
T9 construct: not shown: glutathione S-transferase (GST) encoded by pGEX-3X
T9 sequence: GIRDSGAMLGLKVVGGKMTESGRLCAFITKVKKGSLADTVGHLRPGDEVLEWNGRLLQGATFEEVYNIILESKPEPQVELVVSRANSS
The experiment can be described thus: A assay.

In experiment [12] the target is T2, GST-NeDLG PDZ domains 1-2 fusion protein. Briefly: G assay titration of biotinylated peptide on immobilized GST-PDZ, saturation fit (apparent affinity). The source says: FIGS. 2A and 2B show the Apparent Affinity Determination for PDZ-Ligand Interactions. […] The binding to GST alone (<0.2 OD units) was subtracted from the binding to the fusion proteins to obtain the signal at each peptide concentration.

The target in experiment [13] is T8, GST-MPP1 PDZ domain fusion protein. Briefly: G assay.
In experiment [14] the target is T10, GST-prIL16 PDZ domains 1-2 fusion protein (Homo sapiens (Human), UniProt Q14005 1110-1325).
T10 construct: also called putative interleukin 16 precursor; not shown: glutathione S-transferase (GST) encoded by pGEX-3X
T10 sequence: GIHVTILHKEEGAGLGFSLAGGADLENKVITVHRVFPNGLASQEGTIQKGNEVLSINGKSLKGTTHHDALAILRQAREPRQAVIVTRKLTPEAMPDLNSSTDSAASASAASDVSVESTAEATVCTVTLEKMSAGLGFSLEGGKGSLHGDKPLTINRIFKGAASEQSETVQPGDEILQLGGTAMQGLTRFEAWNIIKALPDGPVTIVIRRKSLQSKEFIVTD
The experiment can be described thus: G assay.

The target in experiment [15] is T2, GST-NeDLG PDZ domains 1-2 fusion protein. Briefly: A/G assays.
Experiment [16] concerns the target T11, GST-CASK PDZ domain fusion protein (mouse, UniProt O14936 485-575 (human entry)).
T11 sequence: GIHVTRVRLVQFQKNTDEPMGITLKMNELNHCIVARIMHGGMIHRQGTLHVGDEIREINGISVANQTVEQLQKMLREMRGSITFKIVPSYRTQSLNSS
Briefly: A/G assays.

B1: DOCK2 C-terminal peptide AA40L (peptide)
peptide: Biotin-LASKSAEEGKQIPDSLSTDL
Turning to B1, the binding result was “binds” in experiment [1]; “binds” in experiment [2]; “no binding” in [3]; “no binding” in experiment [4]; “no binding” in experiment [5]; “no binding” in experiment [6]. Further, the binding result in experiment [7] is “no binding”.

B2: Glycophorin C C-terminal peptide AA37L (peptide)
peptide: Biotin-QGDPALQDAGDSSRKEYFI
notes: also called GC
B2: the binding result was “no binding” in experiment [8]; “binds” in [2]; “binds” in [9]; “no binding” in experiment [3]; “no binding” in experiment [10]; “no binding” in experiment [5]. Further, the binding result in [6] and in experiment [7] was “no binding” each time.

B3: CLASP-2 C-terminal peptide AA2L (peptide)
peptide: Biotin-ISGTPTSTMVHGMTSSSSVV
Take B3: the binding result is on record as “binds” in experiment [11]; “no binding” in experiment [3]; “no binding” in experiment [10]; “no binding” in [4]; “no binding” in [5]; “no binding” in experiment [6]. The binding result in experiment [7] was “no binding”. In addition, the Kd in [12] worked out at 7.5 µM.

B4: CD44 (long form) C-terminal peptide AA9L (peptide)
peptide: Biotin-QFMTADETRNLQNVDMKIGV
Consider B4, for which the binding result in experiment [13] is “binds”; in [14] it was “binds”; in experiment [3] it was “no binding”; in experiment [10], “no binding”; in experiment [4], “no binding”; in [5], “no binding”. Besides, the binding result in [15], in [6] and in [7] was “no binding” throughout.

B5: CD138 (syndecan) C-terminal peptide AA18L (peptide)
peptide: Biotin-PKQANGGAYQKPTKQEEFYA
On to B5, for which the binding result in experiment [16], in experiment [3], in experiment [10], in experiment [4], in experiment [5] and in experiment [15] was “no binding” each time. The binding result in experiment [6] and in [7] was “no binding” throughout.

For the origin of these results see US6942981.
